Measurements: patent US20260108617A1, “AUTO-TUNING DRUG REGULATOR CONSTRUCTIONS” (priority 2023, published 2026)

Key:
[1] = molecular target: recombinant prostasin enzyme (Homo sapiens, UniProt Q16651); assay: Incubation with recombinant prostasin enzyme, LC/MS analysis of incapacitation byproduct; type: biochemical
Method: This is not observed in absence of the enzyme incubation.
Then in FIG. 10, incubation of the drug alone with the prostasin enzyme can be analyzed by LC/MS for the byproduct of incapacitation (the alkylation of the decoy yielding a 1-methylpiperazine-one).
The drug could be tested in similar ways as the other compounds.
The strategy of this example can be generalized for any peptide based PROTAC for TrkA or any other target.

[2] = Cell uptake by imaging of conjugated dancyl fluorophore; type: cell-based; conditions: data not shown
Text: Compound 9 was shown efficacious in these experiments.

recombinant prostasin enzyme, sequence (Q16651 33-343, species assumed): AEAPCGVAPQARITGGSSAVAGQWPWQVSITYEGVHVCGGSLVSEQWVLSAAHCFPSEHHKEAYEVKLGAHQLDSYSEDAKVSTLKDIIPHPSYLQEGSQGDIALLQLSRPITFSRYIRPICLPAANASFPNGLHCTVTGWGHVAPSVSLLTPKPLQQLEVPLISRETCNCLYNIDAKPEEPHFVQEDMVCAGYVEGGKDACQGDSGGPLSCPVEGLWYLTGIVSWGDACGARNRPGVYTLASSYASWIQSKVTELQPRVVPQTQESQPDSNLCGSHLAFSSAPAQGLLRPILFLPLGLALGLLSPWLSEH

| Sequence | incapacitation byproduct seen by LC/MS ([1]; absence of the enzyme incubation) | incapacitation byproduct seen by LC/MS ([1]; incubated with recombinant prostasin enzyme) | cell uptake [2] |
| --- | --- | --- | --- |
| LFLGQARGGRRRRPPP | not observed | independent activator byproduct |  |
| RRARRPRGRQAR |  |  | demonstrated for cell uptake |
